How the values were obtained:
Assay type in all cases: biochemical
EphA4 = EphA4 (Homo sapiens, UniProt P54764); assay: TR-FRET kinase assay, EphA4; settings: Kinase Concentration 0.5 nM; 50 nM ULight-labeled substrate, 200 micromolar ATP, 2 hours
Procedure: (§1) TR-FRET kinase assays are performed under standardized conditions: various individual kinases are incubated with 50 nM of kinase substrate BRB1 labeled with the TR-FRET acceptor dye ULight (PerkinElmer) and 200 micromolar ATP in 10 μL of kinase assay buffer (50 mM HEPES pH7.5, 10 mM MgCl2, 3 mM MnCl2, 1 mM EGTA, 2 mM DTT and 0.01% Tween-20) for 2 hours at room temperature. Reactions are stopped with EDTA, and anti-phospho-tyrosine antibodies (clone PT66) labeled with the TR-FRET europium chelate donor dye are added to a final concentration of 2 nM in a final volume of 20 μL. The TR-FRET signal emitted at 665 nm is read one hour after the addition of antibodies using a TR-FRET plate reader such as the Envision® Multilabel Plate reader (PerkinElmer). The emitted signal at 665 nm is proportional to the extent of peptide phosphorylation, Control reactions indicative of background are performed excluding ATP from the reaction.
(§2) Assay conditions are identical to those used described for FIG. 1.

FGR = FGR (Homo sapiens, UniProt P09769); assay: TR-FRET kinase assay, FGR; settings: Kinase Concentration 0.1 nM; 50 nM ULight-labeled substrate, 200 micromolar ATP, 2 hours
Procedure: as §1, §2

SYK = SYK (Homo sapiens, UniProt P43405); assay: TR-FRET kinase assay, SYK; settings: Kinase Concentration 0.5 nM; 50 nM ULight-labeled substrate, 200 micromolar ATP, 2 hours
Procedure: as §1, §2

KDR = KDR (Homo sapiens, UniProt P35968); assay: TR-FRET kinase assay, KDR; settings: Kinase Concentration 0.25 nM; 50 nM ULight-labeled substrate, 200 micromolar ATP, 2 hours
Chain of KDR (P35968 20-1356, species assumed): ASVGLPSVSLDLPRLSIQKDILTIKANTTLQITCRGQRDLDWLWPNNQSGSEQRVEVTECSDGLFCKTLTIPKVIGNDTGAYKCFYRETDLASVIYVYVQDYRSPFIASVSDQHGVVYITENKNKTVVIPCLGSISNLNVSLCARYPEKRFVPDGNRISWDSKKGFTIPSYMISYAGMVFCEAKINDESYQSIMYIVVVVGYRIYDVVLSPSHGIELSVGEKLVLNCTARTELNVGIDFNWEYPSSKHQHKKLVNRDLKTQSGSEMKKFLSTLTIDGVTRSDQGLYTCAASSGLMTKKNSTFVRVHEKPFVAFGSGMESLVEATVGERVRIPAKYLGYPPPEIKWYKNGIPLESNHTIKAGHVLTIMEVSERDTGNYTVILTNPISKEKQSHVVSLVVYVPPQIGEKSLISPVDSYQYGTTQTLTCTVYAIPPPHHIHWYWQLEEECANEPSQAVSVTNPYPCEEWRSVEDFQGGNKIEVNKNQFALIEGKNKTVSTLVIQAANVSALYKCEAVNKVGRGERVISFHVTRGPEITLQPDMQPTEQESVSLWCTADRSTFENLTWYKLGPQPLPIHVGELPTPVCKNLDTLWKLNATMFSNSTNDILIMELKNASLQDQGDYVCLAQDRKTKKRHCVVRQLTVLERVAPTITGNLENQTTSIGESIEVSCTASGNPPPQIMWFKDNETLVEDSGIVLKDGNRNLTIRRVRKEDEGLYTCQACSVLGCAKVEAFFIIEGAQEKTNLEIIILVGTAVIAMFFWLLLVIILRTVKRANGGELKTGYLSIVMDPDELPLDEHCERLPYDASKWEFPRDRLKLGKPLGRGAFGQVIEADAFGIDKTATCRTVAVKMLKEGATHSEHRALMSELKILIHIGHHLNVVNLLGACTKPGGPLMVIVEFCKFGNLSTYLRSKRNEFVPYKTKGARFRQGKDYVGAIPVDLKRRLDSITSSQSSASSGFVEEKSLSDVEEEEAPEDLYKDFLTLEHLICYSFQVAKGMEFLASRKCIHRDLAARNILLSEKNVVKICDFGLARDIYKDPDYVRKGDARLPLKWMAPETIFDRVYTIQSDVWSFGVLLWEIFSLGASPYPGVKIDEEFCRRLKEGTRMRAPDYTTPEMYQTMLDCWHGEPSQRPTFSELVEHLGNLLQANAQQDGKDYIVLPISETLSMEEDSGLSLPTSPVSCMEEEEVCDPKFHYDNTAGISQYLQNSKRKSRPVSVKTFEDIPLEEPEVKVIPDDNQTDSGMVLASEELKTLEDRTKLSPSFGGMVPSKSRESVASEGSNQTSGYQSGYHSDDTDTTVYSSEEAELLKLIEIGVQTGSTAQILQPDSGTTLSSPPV
Procedure: as §1, §2

LYNa = LYNa (Homo sapiens, UniProt P07948); assay: TR-FRET kinase assay, LYNa; settings: Kinase Concentration 0.5 nM; 50 nM ULight-labeled substrate, 200 micromolar ATP, 2 hours
Chain of LYNa (P07948 whole entry, species assumed): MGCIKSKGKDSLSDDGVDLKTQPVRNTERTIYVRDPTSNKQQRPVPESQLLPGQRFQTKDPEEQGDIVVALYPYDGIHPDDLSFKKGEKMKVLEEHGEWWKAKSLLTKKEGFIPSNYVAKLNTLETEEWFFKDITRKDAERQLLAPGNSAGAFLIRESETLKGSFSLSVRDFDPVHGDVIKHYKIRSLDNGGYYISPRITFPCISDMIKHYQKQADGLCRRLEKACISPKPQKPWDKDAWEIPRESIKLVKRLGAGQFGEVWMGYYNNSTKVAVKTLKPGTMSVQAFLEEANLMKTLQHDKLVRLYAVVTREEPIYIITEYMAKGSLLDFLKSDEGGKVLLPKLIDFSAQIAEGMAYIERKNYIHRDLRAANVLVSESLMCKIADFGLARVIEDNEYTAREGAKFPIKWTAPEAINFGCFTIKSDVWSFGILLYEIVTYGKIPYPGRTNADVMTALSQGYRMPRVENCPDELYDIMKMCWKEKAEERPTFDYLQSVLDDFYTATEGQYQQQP
Procedure: as §1, §2

BMX = target: T1, BMX (Homo sapiens, UniProt P51813); assay: TR-FRET kinase assay, BMX; settings: Kinase Concentration 0.5 nM; 50 nM ULight-labeled substrate, 200 micromolar ATP, 2 hours
T1 sequence (P51813 1-675): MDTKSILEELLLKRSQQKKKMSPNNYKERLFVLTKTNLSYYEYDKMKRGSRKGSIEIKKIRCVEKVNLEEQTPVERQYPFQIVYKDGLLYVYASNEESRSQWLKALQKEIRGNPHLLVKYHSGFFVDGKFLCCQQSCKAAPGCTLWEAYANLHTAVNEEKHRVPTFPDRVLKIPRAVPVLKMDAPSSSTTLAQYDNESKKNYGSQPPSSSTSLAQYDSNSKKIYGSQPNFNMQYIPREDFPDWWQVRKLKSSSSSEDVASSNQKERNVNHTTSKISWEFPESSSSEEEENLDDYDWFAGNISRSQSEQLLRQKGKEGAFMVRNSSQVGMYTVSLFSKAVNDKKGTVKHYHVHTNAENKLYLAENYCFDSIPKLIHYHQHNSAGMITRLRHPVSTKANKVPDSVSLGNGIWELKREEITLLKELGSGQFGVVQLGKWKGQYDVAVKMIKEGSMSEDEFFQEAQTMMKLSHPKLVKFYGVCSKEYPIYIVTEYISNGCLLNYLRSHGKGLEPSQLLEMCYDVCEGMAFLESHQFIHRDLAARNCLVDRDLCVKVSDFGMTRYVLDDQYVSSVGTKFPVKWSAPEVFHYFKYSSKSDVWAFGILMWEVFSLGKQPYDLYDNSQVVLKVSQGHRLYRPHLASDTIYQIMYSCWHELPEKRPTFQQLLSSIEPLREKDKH
Procedure: as §1, §2

TEC = target: T2, TEC (Homo sapiens, UniProt P42680); assay: TR-FRET kinase assay, TEC; settings: Kinase Concentration 0.5 nM; 50 nM ULight-labeled substrate, 200 micromolar ATP, 2 hours
T2 sequence (P42680 1-631): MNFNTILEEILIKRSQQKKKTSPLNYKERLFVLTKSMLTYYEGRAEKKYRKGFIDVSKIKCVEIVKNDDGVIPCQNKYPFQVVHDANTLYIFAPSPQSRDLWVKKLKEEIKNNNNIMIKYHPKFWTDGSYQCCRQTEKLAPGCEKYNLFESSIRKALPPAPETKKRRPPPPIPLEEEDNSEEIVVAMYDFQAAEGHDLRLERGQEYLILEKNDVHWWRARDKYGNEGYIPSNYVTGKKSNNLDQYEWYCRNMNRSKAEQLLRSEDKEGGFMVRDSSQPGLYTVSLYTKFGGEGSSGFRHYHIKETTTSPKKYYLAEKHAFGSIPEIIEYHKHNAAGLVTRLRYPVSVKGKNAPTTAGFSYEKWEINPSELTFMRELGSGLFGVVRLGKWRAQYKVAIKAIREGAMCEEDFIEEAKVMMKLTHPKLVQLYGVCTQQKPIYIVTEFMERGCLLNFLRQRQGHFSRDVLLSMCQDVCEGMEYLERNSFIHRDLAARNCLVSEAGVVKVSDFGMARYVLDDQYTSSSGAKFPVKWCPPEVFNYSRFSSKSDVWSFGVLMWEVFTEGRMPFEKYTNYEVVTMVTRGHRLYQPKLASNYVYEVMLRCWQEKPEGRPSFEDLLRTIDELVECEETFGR
Procedure: as §1, §2

Chain of EphA4 (P54764 20-986, species assumed): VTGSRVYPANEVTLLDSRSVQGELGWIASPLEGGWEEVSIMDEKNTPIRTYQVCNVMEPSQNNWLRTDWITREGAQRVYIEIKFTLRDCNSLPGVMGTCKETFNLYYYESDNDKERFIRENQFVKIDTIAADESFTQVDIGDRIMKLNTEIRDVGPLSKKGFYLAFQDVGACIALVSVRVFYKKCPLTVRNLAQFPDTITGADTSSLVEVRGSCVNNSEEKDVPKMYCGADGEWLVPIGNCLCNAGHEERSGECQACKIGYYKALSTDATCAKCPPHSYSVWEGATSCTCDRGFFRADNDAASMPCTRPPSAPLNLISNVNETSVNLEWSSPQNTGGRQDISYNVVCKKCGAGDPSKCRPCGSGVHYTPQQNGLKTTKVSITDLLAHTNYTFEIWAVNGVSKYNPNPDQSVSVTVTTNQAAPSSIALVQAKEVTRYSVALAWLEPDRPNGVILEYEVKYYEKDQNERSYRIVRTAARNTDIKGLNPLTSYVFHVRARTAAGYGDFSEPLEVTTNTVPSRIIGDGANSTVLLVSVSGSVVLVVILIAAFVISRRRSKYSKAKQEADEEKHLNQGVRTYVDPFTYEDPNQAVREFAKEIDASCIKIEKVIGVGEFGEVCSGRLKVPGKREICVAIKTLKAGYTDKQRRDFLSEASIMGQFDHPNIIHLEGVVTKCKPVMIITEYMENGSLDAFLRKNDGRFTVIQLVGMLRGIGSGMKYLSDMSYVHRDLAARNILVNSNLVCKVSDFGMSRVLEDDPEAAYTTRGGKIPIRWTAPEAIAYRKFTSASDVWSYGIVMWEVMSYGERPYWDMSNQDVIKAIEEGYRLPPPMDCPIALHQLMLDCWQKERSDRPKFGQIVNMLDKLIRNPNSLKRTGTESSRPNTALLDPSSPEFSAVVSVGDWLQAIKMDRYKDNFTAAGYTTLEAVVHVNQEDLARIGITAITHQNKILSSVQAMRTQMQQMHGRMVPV

With “C AYE AYE AYE K EYA EYA EYA K AYA EYE R (CAYEAYEAYEKEYAEYAEYAKAYAEYER; tyrosine kinase substrate peptide) [BRB1]” the “Signal to Noise ratio with BRB1 Peptide” value (EphA4) was 31.5, the “Signal to Noise ratio with BRB1 Peptide” value (FGR) was 29.3 and the “Signal to Noise ratio with BRB1 Peptide” value (SYK) was 24.6. For the same sequence, the “Signal to Noise ratio with BRB1 Peptide” value (KDR) was 16.9, the “Signal to Noise ratio with BRB1 Peptide” value (LYNa) was 32.5 and the “Signal to Noise ratio with BRB1 Peptide” value (BMX) was 7.1. For the same sequence, the “Signal to Noise ratio with BRB1 Peptide” value (TEC) was 18.6.
